Experiment [1] has as its target engineered outer domain mini-V3 (glycosylated gp120 outer domain construct containing a truncated V3 loop) (HIV-1).
Experiment [2] concerns the target soluble, partially deglycosylated 664G Env trimer (HIV-1). Briefly: negative-stain EM reconstruction.

One may read the Kd as the free concentration of one partner at which half of the binding sites on the other are occupied at equilibrium, for simple one-to-one binding. Read a high Kd as weaker binding. What is called stoichiometry N is the number of molecules, sites or subunits per partner or assembly.

B1: PGT 128 (format not stated for the experiment) (antibody, V domains shown)
VH: QPQLQESGPTLVEASETLSLTCAVSGDSTAACNSFWGWVRQPPGKGLEWVGSLSHCASYWNRGWTYHNPSLKSRLTLALDTPKNLVFLKLNSVTAADTATYYCARFGGEVLRYTDWPKPAWVDLWGRGTLVTVSS
VL: QSALTQPPSASGSPGQSITISCTGTSNNFVSWYQQHAGKAPKLVIYDVNKRPSGVPDRFSGSKSGNTASLTVSGLQTDDEAVYYCGSLVGNWDVIFGGGTKLTVL
Take B1: in experiment [1], the Kd amounted to 46 nM and the fold less than the interaction with m8 turned out to be 8 fold.

B2: Fab PGT 128 (Fab, V domains shown)
VH: QPQLQESGPTLVEASETLSLTCAVSGDSTAACNSFWGWVRQPPGKGLEWVGSLSHCASYWNRGWTYHNPSLKSRLTLALDTPKNLVFLKLNSVTAADTATYYCARFGGEVLRYTDWPKPAWVDLWGRGTLVTVSS
VL: QSALTQPPSASGSPGQSITISCTGTSNNFVSWYQQHAGKAPKLVIYDVNKRPSGVPDRFSGSKSGNTASLTVSGLQTDDEAVYYCGSLVGNWDVIFGGGTKLTVL
On to B2, for which the stoichiometry N in experiment [2] is 3.

The values are drawn from publication PMC3280215.
